# Experimental data: publication doi:10.1101/2022.06.24.497451
# Target: SMC3CC/RAD21N complex (human)
substance,measurement,value
SMC1ACC-Δ58-62/RAD21C complex,loss of ATPase activity compared to the WT complex when SMC3CC/RAD21N was added,10%
SMC1ACC-R57A/RAD21C complex,loss of ATPase activity compared to the WT complex when SMC3CC/RAD21N was added,10%
